Data as given in article PMC10713552 (Communications Biology, 2023).

Tests used:
[1] = target: D614G-Hexapro (WT) spike ectodomain (SARS-CoV-2 Wuhan-Hu-1 D614G, D614G); assay: BLI
[2] = target: Omicron BA.1 spike protein ectodomain (BLI) (SARS-CoV-2 Omicron BA.1, strain); assay: BLI

Row | Binder | Kd [1] | koff [1] | kon [1] | Kd [2] | koff [2] | kon [2]
1 | 0383-YN3_T65K (antibody, V domains shown, source: Expi293F, transfected) VH: QVQLQQWGPGLVNPSETLSLTCSVSGGSFATENYYWSWIRQHPGEGLEWIGNIYFSGNKYYNPSLNNRFTISFDTSKNHLSLKLPSVTAADTAVYYCARGTIYFDYSGYRRVDPFHIWGQGTMVIVSS VL: not shown | 682 nM | 0.000178 s⁻¹ | 261 M⁻¹ s⁻¹ | 50.6 nM | 0.00099 s⁻¹ | 19600 M⁻¹ s⁻¹
2 | 0346-MN3_T65L (antibody, V domains shown, source: Expi293F, transfected) VH: QVQLQQWGPGLVNPSETLSLTCSVSGGSFATENYYWSWIRQHPGEGLEWIGNIYFSGNLYYNPSLNNRFTISFDTSKNHLSLKLPSVTAADTAVYYCARGTIYFDMSGYRRVDPFHIWGQGTMVIVSS VL: not shown | 3320 nM | 0.000421 s⁻¹ | 127 M⁻¹ s⁻¹ | 64.2 nM | 0.00252 s⁻¹ | 39200 M⁻¹ s⁻¹
3 | 0380-YN3_T65G (antibody, V domains shown, source: Expi293F, transfected) VH: QVQLQQWGPGLVNPSETLSLTCSVSGGSFATENYYWSWIRQHPGEGLEWIGNIYFSGNGYYNPSLNNRFTISFDTSKNHLSLKLPSVTAADTAVYYCARGTIYFDYSGYRRVDPFHIWGQGTMVIVSS VL: not shown | 77.3 nM | 0.000311 s⁻¹ | 4020 M⁻¹ s⁻¹ | 4980 nM | 0.00218 s⁻¹ | 438 M⁻¹ s⁻¹
4 | 0329-LN3_T65N (antibody, V domains shown, source: Expi293F, transfected) VH: QVQLQQWGPGLVNPSETLSLTCSVSGGSFATENYYWSWIRQHPGEGLEWIGNIYFSGNNYYNPSLNNRFTISFDTSKNHLSLKLPSVTAADTAVYYCARGTIYFDLSGYRRVDPFHIWGQGTMVIVSS VL: not shown | 187 nM | 0.000519 s⁻¹ | 2780 M⁻¹ s⁻¹ | 98.7 nM | 0.000925 s⁻¹ | 9380 M⁻¹ s⁻¹
5 | 0349-MN3_T65P (antibody, V domains shown, source: Expi293F, transfected) VH: QVQLQQWGPGLVNPSETLSLTCSVSGGSFATENYYWSWIRQHPGEGLEWIGNIYFSGNPYYNPSLNNRFTISFDTSKNHLSLKLPSVTAADTAVYYCARGTIYFDMSGYRRVDPFHIWGQGTMVIVSS VL: not shown | 2.97 nM | 0.00117 s⁻¹ | 392000 M⁻¹ s⁻¹ | 8260 nM | 0.00219 s⁻¹ | 265 M⁻¹ s⁻¹
6 | 0352-MN3_T65S (antibody, V domains shown, source: Expi293F, transfected) VH: QVQLQQWGPGLVNPSETLSLTCSVSGGSFATENYYWSWIRQHPGEGLEWIGNIYFSGNSYYNPSLNNRFTISFDTSKNHLSLKLPSVTAADTAVYYCARGTIYFDMSGYRRVDPFHIWGQGTMVIVSS VL: not shown | 6.97 nM | 0.0014 s⁻¹ | 201000 M⁻¹ s⁻¹ | 124 nM | 0.0017 s⁻¹ | 13700 M⁻¹ s⁻¹
7 | 0363-N3_T65I (antibody, V domains shown, source: Expi293F, transfected) VH: QVQLQQWGPGLVNPSETLSLTCSVSGGSFATENYYWSWIRQHPGEGLEWIGNIYFSGNIYYNPSLNNRFTISFDTSKNHLSLKLPSVTAADTAVYYCARGTIYFDRSGYRRVDPFHIWGQGTMVIVSS VL: not shown | 71 nM | 2.3e-05 s⁻¹ | 324 M⁻¹ s⁻¹ | 1580 nM | 0.00106 s⁻¹ | 673 M⁻¹ s⁻¹
8 | 0358-N3_T65D (antibody, V domains shown, source: Expi293F, transfected) VH: QVQLQQWGPGLVNPSETLSLTCSVSGGSFATENYYWSWIRQHPGEGLEWIGNIYFSGNDYYNPSLNNRFTISFDTSKNHLSLKLPSVTAADTAVYYCARGTIYFDRSGYRRVDPFHIWGQGTMVIVSS VL: not shown | – | – | 174 M⁻¹ s⁻¹ | 68.8 nM | 0.000857 s⁻¹ | 12500 M⁻¹ s⁻¹
9 | 0371-N3_T65S (antibody, V domains shown, source: Expi293F, transfected) VH: QVQLQQWGPGLVNPSETLSLTCSVSGGSFATENYYWSWIRQHPGEGLEWIGNIYFSGNSYYNPSLNNRFTISFDTSKNHLSLKLPSVTAADTAVYYCARGTIYFDRSGYRRVDPFHIWGQGTMVIVSS VL: not shown | 592 nM | 0.000157 s⁻¹ | 265 M⁻¹ s⁻¹ | 108 nM | 0.00113 s⁻¹ | 10400 M⁻¹ s⁻¹
10 | 0362-N3_T65H (antibody, V domains shown, source: Expi293F, transfected) VH: QVQLQQWGPGLVNPSETLSLTCSVSGGSFATENYYWSWIRQHPGEGLEWIGNIYFSGNHYYNPSLNNRFTISFDTSKNHLSLKLPSVTAADTAVYYCARGTIYFDRSGYRRVDPFHIWGQGTMVIVSS VL: not shown | 318 nM | 0.00046 s⁻¹ | 1450 M⁻¹ s⁻¹ | 378 nM | 0.00114 s⁻¹ | 3020 M⁻¹ s⁻¹
11 | 0378-YN3_T65E (antibody, V domains shown, source: Expi293F, transfected) VH: QVQLQQWGPGLVNPSETLSLTCSVSGGSFATENYYWSWIRQHPGEGLEWIGNIYFSGNEYYNPSLNNRFTISFDTSKNHLSLKLPSVTAADTAVYYCARGTIYFDYSGYRRVDPFHIWGQGTMVIVSS VL: not shown | 0.186 nM | 0.000168 s⁻¹ | 906000 M⁻¹ s⁻¹ | 1740 nM | 0.000439 s⁻¹ | 253 M⁻¹ s⁻¹
12 | 0354-MN3_T65V (antibody, V domains shown, source: Expi293F, transfected) VH: QVQLQQWGPGLVNPSETLSLTCSVSGGSFATENYYWSWIRQHPGEGLEWIGNIYFSGNVYYNPSLNNRFTISFDTSKNHLSLKLPSVTAADTAVYYCARGTIYFDMSGYRRVDPFHIWGQGTMVIVSS VL: not shown | 292 nM | 0.00118 s⁻¹ | 4030 M⁻¹ s⁻¹ | 67.6 nM | 0.00153 s⁻¹ | 22700 M⁻¹ s⁻¹
13 | 0367-N3_T65N (antibody, V domains shown, source: Expi293F, transfected) VH: QVQLQQWGPGLVNPSETLSLTCSVSGGSFATENYYWSWIRQHPGEGLEWIGNIYFSGNNYYNPSLNNRFTISFDTSKNHLSLKLPSVTAADTAVYYCARGTIYFDRSGYRRVDPFHIWGQGTMVIVSS VL: not shown | 1.09 nM | 0.000175 s⁻¹ | 160000 M⁻¹ s⁻¹ | 642 nM | 0.00176 s⁻¹ | 2740 M⁻¹ s⁻¹
14 | 0379-YN3_T65F (antibody, V domains shown, source: Expi293F, transfected) VH: QVQLQQWGPGLVNPSETLSLTCSVSGGSFATENYYWSWIRQHPGEGLEWIGNIYFSGNFYYNPSLNNRFTISFDTSKNHLSLKLPSVTAADTAVYYCARGTIYFDYSGYRRVDPFHIWGQGTMVIVSS VL: not shown | 2000 nM | 0.000202 s⁻¹ | 101 M⁻¹ s⁻¹ | 89.3 nM | 0.00105 s⁻¹ | 11700 M⁻¹ s⁻¹
15 | 0319-LN3_T65A (antibody, V domains shown, source: Expi293F, transfected) VH: QVQLQQWGPGLVNPSETLSLTCSVSGGSFATENYYWSWIRQHPGEGLEWIGNIYFSGNAYYNPSLNNRFTISFDTSKNHLSLKLPSVTAADTAVYYCARGTIYFDLSGYRRVDPFHIWGQGTMVIVSS VL: not shown | 244 nM | 0.000836 s⁻¹ | 3430 M⁻¹ s⁻¹ | 59.6 nM | 0.00229 s⁻¹ | 38400 M⁻¹ s⁻¹
16 | 0386-YN3_T65N (antibody, V domains shown, source: Expi293F, transfected) VH: QVQLQQWGPGLVNPSETLSLTCSVSGGSFATENYYWSWIRQHPGEGLEWIGNIYFSGNNYYNPSLNNRFTISFDTSKNHLSLKLPSVTAADTAVYYCARGTIYFDYSGYRRVDPFHIWGQGTMVIVSS VL: not shown | 8.83 nM | 0.00138 s⁻¹ | 156000 M⁻¹ s⁻¹ | 66.3 nM | 0.00052 s⁻¹ | 7850 M⁻¹ s⁻¹
17 | 0351-MN3_T65R (antibody, V domains shown, source: Expi293F, transfected) VH: QVQLQQWGPGLVNPSETLSLTCSVSGGSFATENYYWSWIRQHPGEGLEWIGNIYFSGNRYYNPSLNNRFTISFDTSKNHLSLKLPSVTAADTAVYYCARGTIYFDMSGYRRVDPFHIWGQGTMVIVSS VL: not shown | 3.87 nM | 0.000806 s⁻¹ | 208000 M⁻¹ s⁻¹ | 175 nM | 0.00187 s⁻¹ | 10700 M⁻¹ s⁻¹
18 | 0381-YN3_T65H (antibody, V domains shown, source: Expi293F, transfected) VH: QVQLQQWGPGLVNPSETLSLTCSVSGGSFATENYYWSWIRQHPGEGLEWIGNIYFSGNHYYNPSLNNRFTISFDTSKNHLSLKLPSVTAADTAVYYCARGTIYFDYSGYRRVDPFHIWGQGTMVIVSS VL: not shown | 663 nM | 0.00016 s⁻¹ | 242 M⁻¹ s⁻¹ | 8040 nM | 0.00217 s⁻¹ | 269 M⁻¹ s⁻¹
19 | 0327-LN3_T65L (antibody, V domains shown, source: Expi293F, transfected) VH: QVQLQQWGPGLVNPSETLSLTCSVSGGSFATENYYWSWIRQHPGEGLEWIGNIYFSGNLYYNPSLNNRFTISFDTSKNHLSLKLPSVTAADTAVYYCARGTIYFDLSGYRRVDPFHIWGQGTMVIVSS VL: not shown | 183 nM | 0.00127 s⁻¹ | 6950 M⁻¹ s⁻¹ | 58.6 nM | 0.00147 s⁻¹ | 25100 M⁻¹ s⁻¹
20 | 0344-MN3_T65I (antibody, V domains shown, source: Expi293F, transfected) VH: QVQLQQWGPGLVNPSETLSLTCSVSGGSFATENYYWSWIRQHPGEGLEWIGNIYFSGNIYYNPSLNNRFTISFDTSKNHLSLKLPSVTAADTAVYYCARGTIYFDMSGYRRVDPFHIWGQGTMVIVSS VL: not shown | 1670 nM | 0.0005 s⁻¹ | 299 M⁻¹ s⁻¹ | 151 nM | 0.0026 s⁻¹ | 17200 M⁻¹ s⁻¹
